The values that follow come from patent US20250026849A1 (ARCELLX, published 2025).

Sequences and labels used below:
T1: CD123 (Homo sapiens (Human), UniProt P26951 19-305, limits assumed)
T1 construct: The CD123 construct used in the ELISA is not described; also called CD123-Signal
T1 sequence: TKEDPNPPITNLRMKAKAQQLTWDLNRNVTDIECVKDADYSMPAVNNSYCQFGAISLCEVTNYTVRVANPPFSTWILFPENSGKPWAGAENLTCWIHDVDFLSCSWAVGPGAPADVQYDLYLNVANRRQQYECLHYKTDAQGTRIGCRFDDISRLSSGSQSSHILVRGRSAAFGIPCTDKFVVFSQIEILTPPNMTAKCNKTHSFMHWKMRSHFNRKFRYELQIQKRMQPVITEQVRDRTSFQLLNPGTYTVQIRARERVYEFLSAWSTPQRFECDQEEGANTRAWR

B1: D domain of SEQ ID NO: 526 (designed binder)
chain: MGSWQDFKEDLAWIKYELEALGGSEAELAFFEYDIAIFENNLQHYKGKGNPEVEALRKEAAAIRDELQAYRHN
B2: D domain of SEQ ID NO: 514 (designed binder)
chain: MGSWNEFKDDLAMIKMTLEALGGSEAELAWFEHDIAEFEDDLQWYKGKGNPEVEALRKEAAAIRDELQAYRHN
B3: D domain of SEQ ID NO: 515 (designed binder)
chain: MGSWTFFKDDLAEIKWMLEALGGSEAELAWFESDIAYFEDELQWYKGKGNPEVEALRKEAAAIRDELQAYRHN
B4: D domain of SEQ ID NO: 513 (designed binder)
chain: MGSWEWFKSDLASIKWELEALGGSEAELAWFEHDIAEFEEDLQWYKGKGNPEVEALRKEAAAIRDELQAYRHN
B5: D domain of SEQ ID NO: 517 (designed binder)
chain: MGSWSMFKDDLAEIKASLEALGGSEAELAWFEDDIAWFEDDLQHYKGKGNPEVEALRKEAAAIRDELQAYRHN
B6: D domain of SEQ ID NO: 518 (designed binder)
chain: MGSWQYFKDDLAEIKMVLEALGGSEAELAWFEADIAMFEDDLQIYKGKGNPEVEALRKEAAAIRDELQAYRHN
B7: D domain of SEQ ID NO: 516 (designed binder)
chain: MGSWSDFKDDLAEIKMILEALGGSEAELAYFENDIAWFEDDLQEYKGKGNPEVEALRKEAAAIRDELQAYRHN
B8: D domain of SEQ ID NO: 519 (designed binder)
chain: MGSWSFFKDDLAEIKYFLEALGGSEAELAMFEQTIAEFEYDLQDYKGKGNPEVEALRKEAAAIRDELQAYRHN
B9: D domain of SEQ ID NO: 520 (designed binder)
chain: MGSWMEFKEELAEIKYILEALGGSEAELAWFEQSIADFEYDLQDYKGKGNPEVEALRKEAAAIRDELQAYRHN
B10: D domain of SEQ ID NO: 521 (designed binder)
chain: MGSWAWFKEDLAEIKVFLEALGGSEAELAEFEVSIADFEYELQDYKGKGNPEVEALRKEAAAIRDELQAYRHN
B11: D domain of SEQ ID NO: 527 (designed binder)
chain: MGSWDHFKNDLAWIKKHLEALGGSEAELAEFEAVIAYFELYLQGYKGKGNPEVEALRKEAAAIRDELQAYRHN
B12: D domain of SEQ ID NO: 525 (designed binder)
chain: MGSWVLFKEELAYIKFELEALGGSEAELALFENVIAIFESNLQNYKGKGNPEVEALRKEAAAIRDELQAYRHN
B13: D domain of SEQ ID NO: 524 (designed binder)
chain: MGSWYIFKEDLAEIKEELEALGGSEAELAYFEEEIALFEMELQWYKGKGNPEVEALRKEAAAIRDELQAYRHN
B14: D domain of SEQ ID NO: 528 (designed binder)
chain: MGSWYDFKEDLADIKWMLEALGGSEAELAEFENVIAYFENDLQEYKGKGNPEVEALRKEAAAIRDELQAYRHN
B15: D domain of SEQ ID NO: 529 (designed binder)
chain: MGSWYMFKEELADIKWYLEALGGSEAELAWFEDDIAGFEWDLQAYKGKGNPEVEALRKEAAAIRDELQAYRHN
B16: D domain of SEQ ID NO: 522 (designed binder)
chain: MGSWYEFKFDLAEIKEQLEALGGSEAELALFEDDIAFFEYDLQNYKGKGNPEVEALRKEAAAIRDELQAYRHN
B17: D domain of SEQ ID NO: 523 (designed binder)
chain: MGSWYDFKYDLAEIKMDLEALGGSEAELAQFEFDIAFFEEELQDYKGKGNPEVEALRKEAAAIRDELQAYRHN

In the test the target is T1, CD123. In words: ELISA. Further details: unit not given here.
For the molecule B1, the ELISA_avg was 3.2.

Molecule B2 returned an ELISA_avg of 3.5.

For B3, the ELISA_avg is 3.3.

Consider B4, for which the ELISA_avg was found to be 5.7.

Consider B5, for which the ELISA_avg came to 5.2.

B6 gave an ELISA_avg of 3.6.

B7 registered an ELISA_avg of 4.7.

Regarding B8, the ELISA_avg came out at 10.1.

The molecule B9 registered an ELISA_avg of 5.

Molecule B10 registered an ELISA_avg of 3.5.

In the case of B11, the ELISA_avg was found to be 3.3.

The molecule B12 registered an ELISA_avg of 3.5.

Molecule B13 returned an ELISA_avg of 11.1.

B14: the ELISA_avg turned out to be 8.

The molecule B15 showed an ELISA_avg of 7.

B16 came in with an ELISA_avg of 4.6.

In turn, B17 registered an ELISA_avg of 3.2.
